assay: soluble on expression in E. coli; label from the status in PepcDB or PDB records

Sequence	soluble on expression in E. coli
MSDLETVAKFLAESVIASTAKTSERNLRQLETQDGFGLTLLHVIASTNLPLSTRLAGALFFKNFIKRKWVDENGNHLLPANNVELIKKEIVPLMISLPNNLQVQIGEAISSIADSDFPDRWPTLLSDLASRLSNDDMVTNKGVLTVAHSIFKRWRPLFRSDELFLEIKLVLDVFTAPFLNLLKTVDEQITANENNKASLNILFDVLLVLIKLYYDFNCQDIPEFFEDNIQVGMGIFHKYLSYSNPLLEDPDETEHASVLIKVKSSIQELVQLYTTRYEDVFGPMINEFIQITWNLLTSISNQPKYDILVSKSLSFLTAVTRIPKYFEIFNNESAMNNITEQIILPNVTLREEDVELFEDDPIEYIRRDLEGSDTDTRRRACTDFLKELKEKNEVLVTNIFLAHMKGFVDQYMSDPSKNWKFKDLYIYLFTALAINGNITNAGVSSTNNLLNVVDFFTKEIAPDLTSNNIPHIILRVDAIKYIYTFRNQLTKAQLIELMPILATFLQTDEYVVYTYAAITIEKILTIRESNTSPAFIFHKEDISNSTEILLKNLIALILKHGSSPEKLAENEFLMRSIFRVLQTSEDSIQPLFPQLLAQFIEIVTIMAKNPSNPRFTHYTFESIGAILNYTQRQNLPLLVDSMMPTFLTVFSEDIQEFIPYVFQIIAFVVEQSATIPESIKPLAQPLLAPNVWELKGNIPAVTRLLKSFIKTDSSIFPDLVPVLGIFQRLIASKAYEVHGFDLLEHIMLLIDMNRLRPYIKQIAVLLLQRLQNSKTERYVKKLTVFFGLISNKLGSDFLIHFIDEVQDGLFQQIWGNFIITTLPTIGNLLDRKIALIGVLNMVINGQFFQSKYPTLISSTMNSIIETASSQSIANLKNDYVDLDNLEEISTFGSHFSKLVSISEKPFDPLPEIDVNNGVRLYVAEALNKYNAISGNTFLNTILPQLTQENQVKLNQLLVGNRSHHHHHH	soluble
MSDLKYTVTADVLNVRSGAGTGHSVISKVKQGQVLQVIGQENGWFKVTVNGQTGYVSGDFVTTGGKTGTTVQQGTGTYTVNVSSLNVRTGPSTSHTVLGSVNKGKTVQVVSEVQDWFKINFNGGTGYVSKDFVTKGGSALEHHHHHH	soluble
MSDLVSYHLDDGVATLTLNNGKVNAISPDVIIAFNAALDQAEKDRAIVIVTGQPGILSGGYDLKVMTSSAEAAINLVAQGSTLARRMLSHPFPIIVACPGHAVAKGAFLLLSADYRIGVAGPFSIGLNEVQIGMTMHHAGIELARDRLRKSAFNRSVINAEMFDPEGAMAAGFLDKVVSVEELQGAALAVAAQLKKI	not soluble
MSDPRAPRLCVLIDADNVPANYAEAIFEEIAALGEASVRRIYGDWSAMRLNAWAKKVAALGLVADQQFSNTKGKNASDIGLVISAMDFLHSGLFDGFVLVSSDSDFTRLAARIREQGLDVYGIGEKKTPEAFRMACKRFIYVENLGSDEPPAREPRPADEPQQPPAQRGREKEEPMKAIPLIAAAMRAIDPEGEWYSLGQIGQFITQANPDFDTRTYGSAKLSDLIKKISRFEVKPGPGGQLLARDIALEHHHHHH	not soluble
MSDQIADARLVPLGAILTRMSTVVDMPETRGHLISAITTASDPGEILYLSSRADFSEGGSIRGGVPIIAPWFAKNLGHDELQHGWARRVEWETIPTNGGIDARTSHDDWDLRLGTQVLPHGFAMMLKARNASPLRRDFQSAFHPYFRVADVRTTTVTVGDQEFRFDGTAVDQAVPLPEWTPLVIKDSQRTITVTYQGADHAVVWNPGSELAAQMTDVGEGEWTEFVCVEPALLGDHAQGISVPPWDWVEIGMTVKVTPAQ	not soluble
MSDQLEASIKNILEQKTLKWIFVGGKGGVGKTTCSCSLAAQLSKVRERVLLISTDPAHNISDAFSQKFTKTPTLVEGFKNLFAMEIDSNPNGEGVEMGNIEEMLQNAAQNEGGSGGFSMGKDFLQSFAGGLPGIDEAMSFGEMIKLIDSLDFDVVVFDTAPTGHTLRLLQFPTLLEKVFTKILSLQGMFGPMMNQFGGMFGMGGGSMNEMIEKMTTTLESVKKMNAQFKDPNCTTFVCVCIAEFLSLYETERLIQELSKQGIDTHNIIVNQLLFPDTDANGTVSCRKCASRQAIQSKYLTDIDELYEDFHVVKLPLLEAEVRGGPAILQFSERMVDPEANKN	not soluble
MSDSASGYEYVYYDRQVGAVQKSPNLMNDPKGALFYTLDSVFGDPGDTTGWILYNDEMPADANRSNNATLGHTKGVIAFDIASSSALWLLHSWPKYASPSVPGVPTPLYGQTFLCLSLDLATAGKLAAQMALHQQPQVYLPRTGGLDHTSPLYALTQPLNASAPGDSDSLDFKTRGGVPFKVIAKNRKWGKDFWNDLVGPTLKADMYVETWIRGKIPPVLDSDGVHKTYDIKFIDLRKLGAPWAWPETQDHAKWGITTTDNWVCVGDINRMVTQEKRGGGTIAFQDPKLWKALCETDLIIPPPGKTDAQARAMIRKTHEPAELEHHHHHH	not soluble
MSDSKCDSQFYSVQVADSTFTVLKRYQQLKPIGSGAQGIVCAAFDTVLGINVAVKKLSRPFQNQTHAKRAYRELVLLKCVNHKNIISLLNVFTPQKTLEEFQDVYLVMELMDANLCQVIHMELDHERMSYLLYQMLCGIKHLHSAGIIHRDLKPSNIVVKSDCTLKILDFGLARTACTNFMMTPYVVTRYYRAPEVILGMGYKENVDIWSVGCIMGELVKGCVIFQGTDHIDQWNKVIEQLGTPSAEFMKKLQPTVRNYVENRPKYPGIKFEELFPDWIFPSESERDKIKTSQARDLLSKMLVIDPDKRISVDEALRHPYITVWYDPAEAEAPPPQIYDAQLEEREHAIEEWKELIYKEVMDWEERSKNGVVKDQPSDAAVSSNATPSQSSSINDISSMSTEQTLASDTDSSLDASTGPLEGCR	soluble
MSDSSHAFSATERAAVYRAIAERRDMRHFSGGSVAPELLARLLEAAHQAPSVGLMQPWRFIRITEPALRRAIHGLVEEERGRTAEALGERSDEFMRLKVEGVLDCAELLVAALMDDRERHVFGRRTLPQMDLASLACAIQNLWLASRAEGLGMGWVSLFDPAALGELLGLPPGSEAVAVLCLGPVAEFYPAPMLALEGWSEPRPLAELVYQNRWGERA	not soluble
MSDTLRPYKNLFPGIGQRVMIDTSSVVIGDVRLADDVGIWPLVVIRGDVNYVAIGARTNIQDGSVLHVTHKSSSNPHGNPLIIGEDVTVGHKVMLHGCTIGNRVLVGMGSIVLDGAIIEDDVMIGAGSLVPQHKRLESGYLYLGSPVKQIRPLSDAERSGLQYSANNYVKWKDDYLSQDNHIQP	not soluble
MSDVARILKEARDQGRLTALDFAKEIFDDFIELHGDRNFRDDGAVIGGIGRLNGQAVTVVGIQKGKNLQDNLNRNFGQPHPEGYRKALRLMKQAEKFGRSVVTFINTAGAYPGVGAEERGQGEAIARNLMEMSDLKVPIIAIIIGEGGSGGALALAVADKVWMLENTIYSILSPEGFATILWKDGSRSEEAAELMKITSGELLNMGIVDKVIPERGYFTSEIIEAIKTAIVDELAELSQLSTEDLLEARYQRFRKY	not soluble
MSEAEAKLWQHLRAGRLNGYKFRRQQPMGNYIVDFMCVTPKLIVEADGGQHAEQAVYDHARTVYLNSLGFTVLRFWNHEILQQTNDVLAEILRVLQELEKQ	soluble
MSEASRDDYKIQSFDAQTQQLLKTALKDPGAVDLERVANVIVDHSLQDCVFSKEAGRMCYAIIQAESKQAGQSVFRRGLLNRLQKEYDAREQLRACSLQGWVCYVTFICNIFDYLRVNNMPMMALVNPVYDCLFQLAQPESLSREEEVDCLVLQLHRVGEQLEKMNGQRMDELFILIRDGFLLPTDLSSLARLLLLEMIEFRAAGWKTTPAAHKYYYSEVSD	not soluble
MSEFSQTVPELVAWARKNDFSISLPVDRLSFLLAVATLNGERLDGEMSEGELVDAFRHVSDAFEQTSETIGVRANNAINDMVRQRLLNRFTSEQAEGNAIYRLTPLGIGITDYYIRQREFSTLRLSMQLSIVAGELKRAADAAEEGGDEFHWHRNVYAPLKYSVAEIFDSIDLTQRLMDEQQQQVKDDIAQLLNKDWRAAISSCELLLSETSGTLRELQDTLEAAGDKLQANLLRIQDATMTHDDLHFVDRLVFDLQSKLDRIISWGQQSIDLWIGYDRHVHKFIRTAIDMDKNRVFAQRLRQSVQTYFDEPWALTYANADRLLDMRDEEMALRDEEVTGELPEDLEYEEFNEIREQLAAIIEEQLAVYKTRQVPLDLGLVVREYLSQYPRARHFDVARIVIDQAVRLGVAQADFTGLPAKWQPINDYGAKVQAHVIDKY	soluble
MSEHVFETEQVYPALGKVEIAPEVIEVIAGIAASEVDGIAQMRGNFAAGVAERFGKKHHGKGVKVDLRDDGVVIDLYCLVQFGASIPNVAKKVQENVRQALWNMTGLEASEVNVHIVGIQFEGGKQEQGVVEQ	not soluble
